Our source for the response values is doi:10.1101/2025.11.17.688911.

Experiment [1] concerns the target surface-immobilized biotinylated microtubules, Q2XVP4;Q767L7. Nature of the experiment: fluorescence intensity of GFP-tagged MAP9 on MTs (fluorescence microscopy). The conditions noted are these: 100 mM salt (stated for panel d); parent: est. 2.8; read off a plot.
Experiment [2] shares this target. Nature of the experiment: fluorescence intensity of GFP-tagged MAP9-MTBD on surface-immobilized MTs (fluorescence microscopy). Particulars: 100 nM MAP9 construct (stated for panel h and Extended Data Fig. 6b); parent: est. 0.72; read off a plot.

As to “MAP9-MTBD (Human MAP9 (302–647)::GFP::strepII) (from UniProt Q49MG5) LHEMHRIK>LAEMHAIK; …>…; LKEKNRK>LAEKNAK; FKQKEKEK>FAQKEAEK; ERIERKQ>EAIERAQ”, the response in experiment [1] amounted to 2.8 a.u. For the substance “MAP9-MTBD (Human MAP9 (302–647)::GFP::strepII) (from UniProt Q49MG5) Y429A; W432A; K436A; F473A; W476A; K480A”, the response in experiment [2] was determined as 0.05 a.u.
